Key:
[1] = test system: STAT3 phosphorylation in BCC and SCC lines; experiment: phospho-STAT3 levels in transformed keratinocyte lines (IL-22); assay type: cell-based; conditions: BCC (n = 2) and SCC (n = 5) lines vs healthy strains (n = 5), IL-22 time course
Description: Figure 4 SOCS3 and SOCS1 are poorly expressed in the epidermis of NMSC lesions and are not induced in transformed keratinocytes by IL-22 (A) Immunohistochemistry for SOCS3 and SOCS1 (red staining) was performed respectively on frozen or paraffin-embedded sections from biopsies of healthy skin (i), NLS (ii, iii) and LS (iv, v) areas of BCC and SCC, specimens. Psoriatic skin biopsies were also analyzed (vi). Sections were counterstained with Mayer's H&E and were visually evaluated by an pathologist experienced in dermatology. One out of four representative staining is shown. Scale bars, […]. (B) Graphs show SOCS3 and SOCS1 mRNA levels which were detected by real-time PCR analysis in cultured SCC (CAL27 and CAL33) and BCC (M77015) skin tumor lines left untreated or stimulated with IL-22 or IFN-γ for 3 h and normalized for β-actin mRNA expression levels. All data were obtained from three independent experiments. […] SOCS1 was detected by IP using a specific anti-SOCS1 Ab, whereas SOCS3 by WB with an anti-SOCS3 Ab. […] Densitometric intensity (D.I.) of SOCS1 or SOCS3/β-actin was calculated from three independent experiments and numerically expressed as D. I. Ratio. *p < 0.01; **p < 0.05. […] SOCS3 and phospho-Tyr STAT3 levels were detected by WB and normalized to β-actin levels. […]

IL-22R1 phosphorylation = experiment: IP/WB of IL-22R1 phosphorylation in healthy keratinocytes (IL-22); assay type: cell-based, human; conditions: IL-22 10 min, no peptide, n = 3
Description: Figure 5 KIR-ESS peptide inhibits IL-22-induced phosphorylation of STAT3 and Erk in healthy and SCC-derived keratinocytes (A) Protein extracts obtained from healthy keratinocytes (n = 3) pre-treated or not with 15 μM (left panel) or 75 μM (right panel), KIR, KIR-ESS and control (Ctrl1 or Ctrl2) peptides, and, then, stimulated or not with IL-22 for 20 min, were subjected to WB analysis to detect STAT3 (Tyr705), Erk and MEK phosphorylation. Filters were probed with anti-STAT3, -Erk and –MEK Abs (top). (B) Protein extracts obtained from healthy keratinocytes (n = 3) pre-treated or not with 75 μM KIR-ESS and control (Ctrl1) peptides, and, then, stimulated or not with IL-22 for 10 min, were subjected to immunoprecipitation for IL-22R1 and Jak1, and then analysed by WB to detect phosphorylated and unphosphorylated forms of the proteins. (C) Unphosphorylated and phosphorylated forms of STAT1 (Tyr701) and STAT3 (Tyr705) were monitored in keratinocytes treated with IFN-γ for 15 min by WB analysis (bottom). In all experimental groups, filters were stripped and re-probed with β-actin Ab. (D) Protein extracts were obtained from CAL27 (left panel) or CAL33 (right panel) lines treated or not with 75 μM peptides in presence of IL-22 or IFN-γ. WB was performed to detect basal and phosphorylated STAT1, STAT3 and Erk. […]

B1: IL-22: cytokine stimulus, R&D Systems (protein, UniProt Q9GZX6 34-179, looked up)
Interleukin-22: APISSHCRLDKSNFQQPYITNRTFMLAKEASLADNNTDVRLIGEKLFHGVSMSERCYLMKQVLNFTLEEVLFPQSDRFQPYMQEVVPFLARLSNRLSTCHIEGDDLHIQRNVQKLKDTVKKLGESGEIKAIGELDLLFMSLRNACI
B1 was tested, and the phospho-STAT3 levels [1] was “higher compared to healthy cells, and showed a long-lasting activation” and the IL-22R1 phosphorylation induced (IL-22R1 phosphorylation) was “induced molecular cascade implicating phosphorylation of IL-22R1, Tyk2 and Jak1”.
